Measurements as given in PMC6235870.

Assays:
[1] = biological target: CTD of MaSp1 from E. australis modified at C82 with AttoOxa11 (Euprosthenops australis); assay: fluorescence chasing experiment (dissociation kinetics); 60, 120 and 180 nM CTD-AttoOxa11 dimers chased with 20 µM chemically reduced wild-type CTD, manual mixing, 298 K, emission at 677 nm; bi-exponential fit; dimer to monomers
[2] = biological target: CTD of MaSp1 from E. australis modified at C82 with AttoOxa11 (Euprosthenops australis); assay: stopped-flow fluorescence spectroscopy (refolding and dimerisation of denatured monomers); sub-µM CTD-AttoOxa11 in 8 M urea mixed 1:10 into 50 mM phosphate pH 7.0, ionic strength 200 mM (KCl), 298 K; denatured monomers to dimeric intermediate I2
[3] = biological target: C-terminal domain (CTD) of major ampullate spidroin 1 (MaSp1) from Euprosthenops australis, wild type (Euprosthenops australis); assay: far-UV CD equilibrium chemical denaturation at varying protein concentration; urea 0-10 M, CD at 222 nm, 5-30 µM CTD, 50 mM phosphate pH 7.0, ionic strength 200 mM (KCl), 298 K, reducing (1 mM DTE); three-state model N2-I2-D; dimeric intermediate to denatured monomers

Row | koff [1] [s⁻¹] | observed time constant of dissociation, first exponential, 60 nM [1] [s] | observed time constant of dissociation, first exponential, 120 nM [1] [s] | observed time constant of dissociation, first exponential, 180 nM [1] [s] | observed time constant of dissociation, second exponential, 60 nM [1] [s] | observed time constant of dissociation, second exponential, 120 nM [1] [s] | observed time constant of dissociation, second exponential, 180 nM [1] [s] | time constant of dissociation (mean weighted by amplitudes) [1] [s] | kon [2] [M⁻¹ s⁻¹] | stoichiometry N [3] | Substance
1 | 0.008 | 51 | 37 | 34 | 208 | 186 | 194 | 128 | 5.2e+07 | – | CTD of MaSp1 from E. australis modified at C82 with AttoOxa11 (domain or fragment)
2 | – | – | – | – | – | – | – | – | – | 2 | C-terminal domain (CTD) of major ampullate spidroin 1 (MaSp1) from Euprosthenops australis, wild type (domain or fragment)
